The results in this text go back to article PMC8892280 (Proceedings of the National Academy of Sciences of the …, 2022).

In this experiment the target is full-length human LRRK2 (leucine-rich repeat kinase 2) (human, UniProt Q5S007). Description: MST.
full-length human LRRK2 (leucine-rich repeat kinase 2), sequence (Q5S007 whole entry): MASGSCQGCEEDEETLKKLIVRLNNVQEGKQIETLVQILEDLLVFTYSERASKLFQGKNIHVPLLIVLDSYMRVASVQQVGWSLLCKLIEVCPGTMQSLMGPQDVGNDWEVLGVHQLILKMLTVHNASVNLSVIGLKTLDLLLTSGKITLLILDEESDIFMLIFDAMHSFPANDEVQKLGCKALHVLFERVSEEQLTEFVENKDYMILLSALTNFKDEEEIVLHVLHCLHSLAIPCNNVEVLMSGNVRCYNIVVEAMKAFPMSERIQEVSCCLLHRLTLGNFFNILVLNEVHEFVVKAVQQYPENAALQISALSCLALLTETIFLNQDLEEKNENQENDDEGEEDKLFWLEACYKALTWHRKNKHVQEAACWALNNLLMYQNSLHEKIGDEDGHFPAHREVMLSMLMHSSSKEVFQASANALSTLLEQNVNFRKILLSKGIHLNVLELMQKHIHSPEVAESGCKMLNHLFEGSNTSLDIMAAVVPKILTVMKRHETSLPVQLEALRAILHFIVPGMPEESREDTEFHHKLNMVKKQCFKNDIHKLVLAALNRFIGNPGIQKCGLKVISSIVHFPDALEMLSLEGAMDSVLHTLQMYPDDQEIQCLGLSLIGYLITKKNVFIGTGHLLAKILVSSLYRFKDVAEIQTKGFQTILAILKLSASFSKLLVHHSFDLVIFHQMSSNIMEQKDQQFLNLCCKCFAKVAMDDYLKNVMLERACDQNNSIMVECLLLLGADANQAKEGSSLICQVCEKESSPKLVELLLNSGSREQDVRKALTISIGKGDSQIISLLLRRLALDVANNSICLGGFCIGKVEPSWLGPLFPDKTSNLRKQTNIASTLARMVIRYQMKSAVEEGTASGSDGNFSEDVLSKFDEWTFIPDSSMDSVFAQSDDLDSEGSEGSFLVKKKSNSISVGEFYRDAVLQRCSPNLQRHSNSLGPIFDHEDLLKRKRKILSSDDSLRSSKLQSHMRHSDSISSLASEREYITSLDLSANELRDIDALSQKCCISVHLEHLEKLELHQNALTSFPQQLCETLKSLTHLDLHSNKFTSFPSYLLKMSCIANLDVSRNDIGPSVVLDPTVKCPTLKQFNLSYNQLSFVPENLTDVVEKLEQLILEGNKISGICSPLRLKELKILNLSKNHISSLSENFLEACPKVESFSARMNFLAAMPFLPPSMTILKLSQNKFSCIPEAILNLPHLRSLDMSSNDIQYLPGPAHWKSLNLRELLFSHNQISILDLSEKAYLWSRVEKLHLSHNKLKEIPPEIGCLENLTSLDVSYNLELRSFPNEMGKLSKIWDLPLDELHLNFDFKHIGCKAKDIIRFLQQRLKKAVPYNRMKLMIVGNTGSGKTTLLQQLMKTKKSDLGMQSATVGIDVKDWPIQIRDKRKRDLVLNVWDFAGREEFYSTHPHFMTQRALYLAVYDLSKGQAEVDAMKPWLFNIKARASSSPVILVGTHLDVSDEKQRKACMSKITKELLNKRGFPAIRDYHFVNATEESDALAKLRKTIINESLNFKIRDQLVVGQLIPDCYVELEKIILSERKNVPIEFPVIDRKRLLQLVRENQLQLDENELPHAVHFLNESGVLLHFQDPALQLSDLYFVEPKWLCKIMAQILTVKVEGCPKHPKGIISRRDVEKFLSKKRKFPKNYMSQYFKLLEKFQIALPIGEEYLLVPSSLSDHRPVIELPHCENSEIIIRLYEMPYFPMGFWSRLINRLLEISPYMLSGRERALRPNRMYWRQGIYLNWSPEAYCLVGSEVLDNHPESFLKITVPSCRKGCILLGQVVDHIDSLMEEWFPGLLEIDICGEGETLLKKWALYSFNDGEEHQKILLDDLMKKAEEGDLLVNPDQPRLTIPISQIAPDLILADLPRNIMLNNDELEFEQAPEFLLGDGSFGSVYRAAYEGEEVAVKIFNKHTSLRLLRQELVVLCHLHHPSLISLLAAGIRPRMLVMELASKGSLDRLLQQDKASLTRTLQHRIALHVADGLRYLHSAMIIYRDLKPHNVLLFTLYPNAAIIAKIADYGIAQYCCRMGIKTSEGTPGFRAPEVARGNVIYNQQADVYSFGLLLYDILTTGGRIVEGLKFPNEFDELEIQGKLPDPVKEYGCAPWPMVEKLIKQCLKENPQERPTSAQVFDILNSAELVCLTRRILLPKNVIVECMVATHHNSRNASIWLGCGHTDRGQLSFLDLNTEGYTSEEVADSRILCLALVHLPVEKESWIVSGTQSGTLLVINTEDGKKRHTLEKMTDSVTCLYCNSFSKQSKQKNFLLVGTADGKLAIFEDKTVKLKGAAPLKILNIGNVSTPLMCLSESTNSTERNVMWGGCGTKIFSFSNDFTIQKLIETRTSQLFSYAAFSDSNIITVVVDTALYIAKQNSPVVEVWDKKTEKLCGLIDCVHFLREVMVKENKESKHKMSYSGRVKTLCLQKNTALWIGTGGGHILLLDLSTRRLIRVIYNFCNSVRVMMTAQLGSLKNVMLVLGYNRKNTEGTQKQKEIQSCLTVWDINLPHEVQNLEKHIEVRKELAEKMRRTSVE

B1: m-TAMRA-labeled Nb42 (VHH)
VHH: QVQLVESGGGLVQAGGSLRLSCAASGDVNYAVGWFRQAPRKEREFVAAINWRGDNTDYTDSVKGRFTISRDNAKNTVYLQMNSLKPEDTAVYYCAAKSAPYWYSDIAPDYWGQGTQVTVSS
Broadly, the Kd is the equilibrium constant for the complex coming apart. A lower Kd goes with a tighter complex. On to B1, for which binding was put at a Kd of 94 ± 30 nM.
